Earlier results in patent US20230279132A1, “TREATMENT OF B CELL MALIGNANCIES” (NOVARTIS AG, priority 2020, published 2023).

Tested on: DLBCL
Settings: plus lenalidomide; relapsed or refractory DLBCL ineligible for transplants

B1: tafasitamab-cxix: FDA-approved with lenalidomide for relapsed or refractory DLBCL (antibody, chains of the INN, looked up)
heavy: EVQLVESGGGLVKPGGSLKLSCAASGYTFTSYVMHWVRQAPGKGLEWIGYINPYNDGTKYNEKFQGRVTISSDKSISTAYMELSSLRSEDTAMYYCARGTYYYGTRVFDYWGQGTLVTVSSASTKGPSVFPLAPSSKSTSGGTAALGCLVKDYFPEPVTVSWNSGALTSGVHTFPAVLQSSGLYSLSSVVTVPSSSLGTQTYICNVNHKPSNTKVDKKVEPKSCDKTHTCPPCPAPELLGGPDVFLFPPKPKDTLMISRTPEVTCVVVDVSHEDPEVQFNWYVDGVEVHNAKTKPREEQFNSTFRVVSVLTVVHQDWLNGKEYKCKVSNKALPAPEEKTISKTKGQPREPQVYTLPPSREEMTKNQVSLTCLVKGFYPSDIAVEWESNGQPENNYKTTPPMLDSDGSFFLYSKLTVDKSRWQQGNVFSCSVMHEALHNHYTQKSLSLSPG
light: DIVMTQSPATLSLSPGERATLSCRSSKSLQNVNGNTYLYWFQQKPGQSPQLLIYRMSNLNSGVPDRFSGSGSGTEFTLTISSLEPEDFAVYYCMQHLEYPITFGAGTKLEIKRTVAAPSVFIFPPSDEQLKSGTASVVCLLNNFYPREAKVQWKVDNALQSGNSQESVTEQDSKDSTYSLSSTLTLSKADYEKHKVYACEVTHQGLSSPVTKSFNRGEC
- CR: 37%
- ORR: 55%
